The subject of data set [1] is Arabidopsis thaliana PPC1 (AtPPC1, C3 PEPC). As to the kind of experiment: malate dehydrogenase coupled PEPC enzymatic assay, Arabidopsis C3 PPC1 and engineered variants. The following applies: for Km: 0-7.5 mM phosphoenolpyruvate, read-out: Km PEP; for Km / Vmax: 25° C, HEPES pH7.5. Format: biochemical. The text has this:
For both Arabidopsis C3 PPC1 (AtPPC1) and maize C4 PPC1 (ZmPPC1), the entire coding sequence for each was cloned into pET22b, which contains an amino-terminal 6×-HIS tag for protein purification, and expression was driven by the T7 promoter and lac operon. Relevant mutations were introduced by the Stratagene QuikChange mutagenesis kit using PCR amplification. Both wild type and mutant cDNA constructs were sequenced entirely following cloning into pet22b. Proteins were produced by growing transformed E. coli (BL21 CodonPlus) in autoinduction medium at 18° C. for 16 hours. Proteins were isolated by sonication of bacterial cells followed by passage over a nickel sepharose affinity column, elution with imidazole and separation on a GE SUPERDEX HILOAD 200 PG 16/60 all using an AKTA FPLC.
Enzyme analysis was conducted in vitro using protein that was generated by expression in E. coli using the pET22b vector. For expression, pET22b constructs were transformed into E. coli BL21-DE3 codon plus RIL cells and grown at 37° C. in autoinduction media until reaching an OD=1 after which these were transferred to 18° C. for 18 hours. Samples were collected and lysed by sonication. Protein was purified by passage through a His-trap nickel affinity column on an Akta FPLC and then eluted with 400 mM imidazole. Partially purified protein was then separated on an FPLC equipped with a HiPrep S200 size exclusion column (16/60) after which collected sample was concentrated by centrifugation to a final concentration of 4 mg/ml in 50% glycerol. Samples were stored at −20° C.
For enzymatic assays, a malate dehydrogenase coupled reaction was conducted with a range of substrate concentrations (0-7.5 mM phosphoenolpyruvate pyruvate) and a range of concentrations of allosteric inhibitor (0-50 mM malate). Assays were monitored using a Victor2 microplate reader at 25° C. Reactions consisted of […] PPC enzyme variants, 50 mM HEPES pH7.5, 10 mM MgCl2, 10 mM KHCO3 (carbonate substrate), 0.2 mM NADH, and 10 units/ml of malate dehydrogenase. Reaction time was 15 minutes and samples were measured on an ˜40 second interval. For measurement, which monitors loss of NADH, excitation wavelength was 340 nM and emission wavelength was 460 nM. From these assays, the enzyme kinetics of Tables 4-1 and 4-2 were determined for each enzyme variant.

Data set [2] relates to transgenic Arabidopsis seedlings. As to the kind of experiment: root growth analysis of transgenic Arabidopsis in the presence of aluminum. Conditions: day 7, 20° C, soaked gel, aluminum toxicity equivalent to about 50-100 μM; versus plants expressing wt AtPPC1. The data set is classed as in vivo, Arabidopsis thaliana. On the procedure:
Root growth was examined in transgenic Arabidopsis engineered to express wt AtPPC1, or a variant PEPC (G678S AtPPC1 or R886G AtPPC1) in a genotypic background devoid of expression of native AtPPC1. Seedlings from the transgenic Arabidopsis strains were grown at 20° C. in a soaked gel environment with aluminum toxicity equivalent to about 50-100 μM in the absence of agar. Root growth was assessed at day 7. […] This is consistent with the improved enzyme kinetics of the G678S AtPPC1 or R886G AtPPC1 enzymes described in Example 5.

From patent US12168773B2, “Engineered phosphoenolpyruvate carboxylase enzymes” (The Regents of the University of California, priority 2019, dated 2024) come the findings set out here.

As usually defined, the Km is the concentration of substrate that gives half-maximal velocity.

B1: AtPPC1 G678S: engineered Arabidopsis thaliana PPC1 with G678S substitution (alr-128), SEQ ID NO:11 (protein)
chain: MANRKLEKMASIDVHLRQLVPGKVSEDDKLVEYDALLLDRFLDILQDLHGEDLRETVQELYEHSAEYEGKHEPKKLEELGSVLTSLDPGDSIVIAKAFSHMLNLANLAEEVQIAYRRRIKKLKKGDFVDESSATTESDLEETFKKLVGDLNKSPEEIFDALKNQTVDLVLTAHPTQSVRRSLLQKHGRIRDCLAQLYAKDITPDDKQELDEALQREIQAAFRTDEIKRTPPTPQDEMRAGMSYFHETIWKGVPKFLRRVDTALKNIGIEERVPYNAPLIQFSSWMGGDRDGNPRVTPEVTRDVCLLARMMAATMYFNQIEDLMFEMSMWRCNDELRARADEVHANSRKDAAKHYIEFWKSIPTTEPYRVILGDVRDKLYHTRERAHQLLSNGHSDVPVEATFINLEQFLEPLELCYRSLCSCGDRPIADGSLLDFLRQVSTFGLSLVRLDIRQESDRHTDVLDAITTHLDIGSYREWSEERRQEWLLSELSGKRPLFGSDLPKTEEIADVLDTFHVIAELPADSFGAYIISMATAPSDVLAVELLQRECRVKQPLRVVPLFEKLADLEAAPAAVARLFSVDWYKNRINGKQEVMIGYSDSGKDAGRLSAAWQLYKAQEELVKVAKEYGVKLTMFHGRGGTVGRGGGPTHLAILSQPPDTINGSLRVTVQGEVIEQSFSEEHLCFRTLQRFTAATLEHGMRPPISPKPEWRALLDEMAVVATEEYRSVVFQEPRFVEYFRLATPELEYGRMNIGSRPSKRKPSGGIESLRAIPWIFAWTQTRFHLPVWLGFGSAIRHVIEKDVRNLHMLQDMYQHWPFFRVTIDLIEMVFAKGDPGIAALYDKLLVSEELWPFGEKLRANFEETKKLILQTAGHKDLLEGDPYLKQRLRLRDSYITTLNVCQAYTLKRIRDPSYHVTLRPHISKEIAESSKPAKELIELNPTSEYAPGLEDTLILTMKGIAAGLQNTG
As for B1, in data set [1], the Km amounted to 433 ± 40 µM and the Vmax is given as 17.784 ± 0.44 units/mg. In addition, the “increase in catalytic efficiency over wt AtPPC1” value in data set [1] (Kcat/Km relative to wt AtPPC1) is around 5 fold. Besides, the “reduction in Km” value in data set [1] (compared with wt AtPPC1) is 85%. In addition, the “root growth in the presence of aluminum” value in data set [2] is “large increase”.

B2: AtPPC1 wild type: wild type Arabidopsis thaliana PPC1, C3 PEPC, SEQ ID NO:1 (protein)
chain: MANRKLEKMASIDVHLRQLVPGKVSEDDKLVEYDALLLDRFLDILQDLHGEDLRETVQELYEHSAEYEGKHEPKKLEELGSVLTSLDPGDSIVIAKAFSHMLNLANLAEEVQIAYRRRIKKLKKGDFVDESSATTESDLEETFKKLVGDLNKSPEEIFDALKNQTVDLVLTAHPTQSVRRSLLQKHGRIRDCLAQLYAKDITPDDKQELDEALQREIQAAFRTDEIKRTPPTPQDEMRAGMSYFHETIWKGVPKFLRRVDTALKNIGIEERVPYNAPLIQFSSWMGGDRDGNPRVTPEVTRDVCLLARMMAATMYFNQIEDLMFEMSMWRCNDELRARADEVHANSRKDAAKHYIEFWKSIPTTEPYRVILGDVRDKLYHTRERAHQLLSNGHSDVPVEATFINLEQFLEPLELCYRSLCSCGDRPIADGSLLDFLRQVSTFGLSLVRLDIRQESDRHTDVLDAITTHLDIGSYREWSEERRQEWLLSELSGKRPLFGSDLPKTEEIADVLDTFHVIAELPADSFGAYIISMATAPSDVLAVELLQRECRVKQPLRVVPLFEKLADLEAAPAAVARLFSVDWYKNRINGKQEVMIGYSDSGKDAGRLSAAWQLYKAQEELVKVAKEYGVKLTMFHGRGGTVGRGGGPTHLAILSQPPDTINGSLRVTVQGEVIEQSFGEEHLCFRTLQRFTAATLEHGMRPPISPKPEWRALLDEMAVVATEEYRSVVFQEPRFVEYFRLATPELEYGRMNIGSRPSKRKPSGGIESLRAIPWIFAWTQTRFHLPVWLGFGSAIRHVIEKDVRNLHMLQDMYQHWPFFRVTIDLIEMVFAKGDPGIAALYDKLLVSEELWPFGEKLRANFEETKKLILQTAGHKDLLEGDPYLKQRLRLRDSYITTLNVCQAYTLKRIRDPSYHVTLRPHISKEIAESSKPAKELIELNPTSEYAPGLEDTLILTMKGIAAGLQNTG
Consider B2, for which, in data set [1], the Km was found to be 2740 ± 166 µM and the Vmax came to 24.992 ± 0.69 units/mg.

B3: AtPPC1 T778I: engineered Arabidopsis thaliana PPC1 with T778I substitution (alr-139), SEQ ID NO:12 (protein)
chain: MANRKLEKMASIDVHLRQLVPGKVSEDDKLVEYDALLLDRFLDILQDLHGEDLRETVQELYEHSAEYEGKHEPKKLEELGSVLTSLDPGDSIVIAKAFSHMLNLANLAEEVQIAYRRRIKKLKKGDFVDESSATTESDLEETFKKLVGDLNKSPEEIFDALKNQTVDLVLTAHPTQSVRRSLLQKHGRIRDCLAQLYAKDITPDDKQELDEALQREIQAAFRTDEIKRTPPTPQDEMRAGMSYFHETIWKGVPKFLRRVDTALKNIGIEERVPYNAPLIQFSSWMGGDRDGNPRVTPEVTRDVCLLARMMAATMYFNQIEDLMFEMSMWRCNDELRARADEVHANSRKDAAKHYIEFWKSIPTTEPYRVILGDVRDKLYHTRERAHQLLSNGHSDVPVEATFINLEQFLEPLELCYRSLCSCGDRPIADGSLLDFLRQVSTFGLSLVRLDIRQESDRHTDVLDAITTHLDIGSYREWSEERRQEWLLSELSGKRPLFGSDLPKTEEIADVLDTFHVIAELPADSFGAYIISMATAPSDVLAVELLQRECRVKQPLRVVPLFEKLADLEAAPAAVARLFSVDWYKNRINGKQEVMIGYSDSGKDAGRLSAAWQLYKAQEELVKVAKEYGVKLTMFHGRGGTVGRGGGPTHLAILSQPPDTINGSLRVTVQGEVIEQSFGEEHLCFRTLQRFTAATLEHGMRPPISPKPEWRALLDEMAVVATEEYRSVVFQEPRFVEYFRLATPELEYGRMNIGSRPSKRKPSGGIESLRAIPWIFAWIQTRFHLPVWLGFGSAIRHVIEKDVRNLHMLQDMYQHWPFFRVTIDLIEMVFAKGDPGIAALYDKLLVSEELWPFGEKLRANFEETKKLILQTAGHKDLLEGDPYLKQRLRLRDSYITTLNVCQAYTLKRIRDPSYHVTLRPHISKEIAESSKPAKELIELNPTSEYAPGLEDTLILTMKGIAAGLQNTG
For the molecule B3, in data set [1], the Km came to 1090 ± 27 µM and the Vmax is recorded as 14.738 ± 0.15 units/mg.

B4: AtPPC1 R886G: engineered Arabidopsis thaliana PPC1 enzyme with R886G substitution (protein, UniProt Q9MAH0 1-967, looked up, variant R886G)
Phosphoenolpyruvate …: MANRKLEKMASIDVHLRQLVPGKVSEDDKLVEYDALLLDRFLDILQDLHGEDLRETVQELYEHSAEYEGKHEPKKLEELGSVLTSLDPGDSIVIAKAFSHMLNLANLAEEVQIAYRRRIKKLKKGDFVDESSATTESDLEETFKKLVGDLNKSPEEIFDALKNQTVDLVLTAHPTQSVRRSLLQKHGRIRDCLAQLYAKDITPDDKQELDEALQREIQAAFRTDEIKRTPPTPQDEMRAGMSYFHETIWKGVPKFLRRVDTALKNIGIEERVPYNAPLIQFSSWMGGDRDGNPRVTPEVTRDVCLLARMMAATMYFNQIEDLMFEMSMWRCNDELRARADEVHANSRKDAAKHYIEFWKSIPTTEPYRVILGDVRDKLYHTRERAHQLLSNGHSDVPVEATFINLEQFLEPLELCYRSLCSCGDRPIADGSLLDFLRQVSTFGLSLVRLDIRQESDRHTDVLDAITTHLDIGSYREWSEERRQEWLLSELSGKRPLFGSDLPKTEEIADVLDTFHVIAELPADSFGAYIISMATAPSDVLAVELLQRECRVKQPLRVVPLFEKLADLEAAPAAVARLFSVDWYKNRINGKQEVMIGYSDSGKDAGRLSAAWQLYKAQEELVKVAKEYGVKLTMFHGRGGTVGRGGGPTHLAILSQPPDTINGSLRVTVQGEVIEQSFGEEHLCFRTLQRFTAATLEHGMRPPISPKPEWRALLDEMAVVATEEYRSVVFQEPRFVEYFRLATPELEYGRMNIGSRPSKRKPSGGIESLRAIPWIFAWTQTRFHLPVWLGFGSAIRHVIEKDVRNLHMLQDMYQHWPFFRVTIDLIEMVFAKGDPGIAALYDKLLVSEELWPFGEKLRANFEETKKLILQTAGHKDLLEGDPYLKQGLRLRDSYITTLNVCQAYTLKRIRDPSYHVTLRPHISKEIAESSKPAKELIELNPTSEYAPGLEDTLILTMKGIAAGLQNTG
Regarding B4, in data set [1], the Km came out at 1110 ± 36 µM and the Vmax is recorded as 12.586 ± 0.14 units/mg. In data set [2], the “root growth in the presence of aluminum” value is “large increase”.
